To fix the notation:
B1: Apoptosis regulator ced-9 (Caenorhabditis elegans), P41958 (parent)
chain: MTRCTADNSLTNPAYRRRTMATGEMKEFLGIKGTEPTDFGINSDAQDLPSPSRQASTRRMSIGESIDGKINDWEEPRLDIEGFVVDYFTHRIRQNGMEWFGAPGLPCGVQPEHEMMRVMGTIFEKKHAENFETFCEQLLAVPRISFSLYQDVVRTVGNAQTDQCPMSYGRLIGLISFGGFVAAKMMESVELQGQVRNLFVYTSLFIKTRIRNNWKEHNRSWDDFMTLGKQMKEDYERAEAEKVGRRKQNRRWSMIGAGVTAGAIGIVGVVVCGRMMFSLK
partner: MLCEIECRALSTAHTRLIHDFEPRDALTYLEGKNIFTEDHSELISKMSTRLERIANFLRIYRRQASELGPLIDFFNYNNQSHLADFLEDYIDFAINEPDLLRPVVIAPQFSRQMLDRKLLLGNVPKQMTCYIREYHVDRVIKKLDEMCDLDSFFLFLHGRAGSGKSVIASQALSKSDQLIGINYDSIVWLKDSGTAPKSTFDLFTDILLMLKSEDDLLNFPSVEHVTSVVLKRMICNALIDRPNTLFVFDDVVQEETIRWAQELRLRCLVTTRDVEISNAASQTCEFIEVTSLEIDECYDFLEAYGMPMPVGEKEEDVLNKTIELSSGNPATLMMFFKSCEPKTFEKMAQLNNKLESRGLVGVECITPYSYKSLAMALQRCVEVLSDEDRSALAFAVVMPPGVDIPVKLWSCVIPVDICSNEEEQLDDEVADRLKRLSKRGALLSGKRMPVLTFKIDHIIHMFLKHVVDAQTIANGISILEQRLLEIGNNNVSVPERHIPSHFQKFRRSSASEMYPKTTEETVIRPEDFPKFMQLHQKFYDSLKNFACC
B2: Apoptosis regulator ced-9 (Caenorhabditis elegans), P41958 (parent)
chain: B1 chain
partner: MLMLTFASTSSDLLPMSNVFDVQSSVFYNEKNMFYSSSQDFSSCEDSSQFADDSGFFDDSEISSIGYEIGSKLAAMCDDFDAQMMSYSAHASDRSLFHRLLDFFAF

The results in this text go back to IntAct's records for PubMed 10846174.

In the first assay the parent is B1. To be noted: with ced4_caeel ced-4, P30429.
Consider G169E, for which the “effect of a mutation on the interaction” value was “with no effect”.

The next assay covers variants of B2. To be noted: with egl1_caeel egl-1, O61667.
As to G169E, the “effect of a mutation on the interaction” value was “with no effect”.

The variants in a further assay derive from B2. To be noted: with egl1_caeel egl-1, O61667. The source holds these as a separate data set.
Turning to G169E, the “effect of a mutation on the interaction” value is “decreasing interaction strength”.
